Reference: paper PMC9569824

Target: bovine pancreatic ribonuclease A (bovine) (UniProt P61823)
Assay: SEC; size of the SA-2 peak from stored N-swapped oligomers, estimated from its elution volume against the calibration curves of the Superdex columns; estimate only

Substance: bovine pancreatic ribonuclease A (from UniProt P61823 27-150) (enzyme)
- stoichiometry N (RNase A units): 180
